B1: YNL125C: GST fusion yeast protein on proteome chip (protein, UniProt P53918 1-673, looked up)
Uncharacterized transporter …: MSTHSNDYFSASSGMVSETSSEVSSINSSQPVSFSKASIAAPVPCSDLHSTKSNDASRKLSISRTLTNRLNDIKKAVDDDNLQTEENSADVNKILESRFDVADAIRLQHNESVQSKLNIPVTHTTTAGASLSAPSSSAFSASSIQNDTTEHKASMDSKLMRNRLYPASTKHSGKDLEAQGITEFEPDEPTVKKVFTNKSTGQLELPPDGGYGWVVTFCVFLTMFSTWGCNASFGVDLAYYLNHDTYPGASKYDYALIAGLTVFLGQLLSPLVMALMRIIGLRTTMLFGDAVMLAAYLLASFTTKLWQLYVTQGFMVGCSISLIFVPATTVLPGWFLKKRAVAMGVSLLGTGAGGVVYGLATNKMLSDFGNTRWCLRIIGISCSISVLVAIALLKERNPTPAIGLKSPRAMFEQLKAMFSLKVITKPFVVLIALWFMFALFAYNMMVFTLSSYAISKGLSSHDASTLTAILNGSQSIGRPLMGLAGDKFGRANVTIVLTTLLTIYMFAFWIPAHTFVQLIFFSILVGSCVGVANVMNTVLIADMVKPEEFLPAWAFVNYCGAPFLLVCEVIAQALTVEKDKSNPYLHAQIFCGCCFIAALILISILREYSIRMKLTERQAMTNEKLKEWKASEYDTDSADEDWGKLKERKTKYDLLLGPGIKKYFLRMVYPMKV
modifications: GST fusion
notes: GST fusion yeast protein on proteome chip
B2: YDL002C: GST fusion yeast protein on proteome chip (protein, UniProt Q03435 2-203, looked up)
Non-histone protein 10: SVEEKKRRLEELKDQNVVLGLAIQRSRLSVKRLKLEYGVLLERLESRIELDPELNCEDPLPTLASFKQELLTKPFRKSKTKRHKVKERDPNMPKRPTNAYLLYCEMNKERIRQNGSLDVTRDLAEGWKNLNEQDRKPYYKLYSEDRERYQMEMEIYNKKISNIDADDDKEENEQKIKNNEEGSSTKVADSKGGEDGSLVSSN
modifications: GST fusion
notes: as for B1
B3: YKL140W: GST fusion yeast protein on proteome chip (protein, UniProt P34163 1-548, looked up)
Sterol esterase TGL1: MYFPFLGRLSITDYIIVVLVYIESIISSVLKLIPQPMINLFEWLINFSTSSDDNTIEEKLRSAPTIHEMCAIFDISVEDHLVRTEDNYILTLHRIPPISKNRFNNKVVYLHHGLLMCSDVWCCNIERHKNLPFVLHDLGYDVWMGNNRGNKYSTAHLNKPPKSNKFWDFSIDEFAFFDIPNSIEFILDITKVDKVICIGFSQGSAQMFAAFSLSEKLNRKVSHFIAIAPAMTPKGLHNRIVDTLAKSSPGFMYLFFGRKIVLPSAVIWQRTLHPTLFNLCIDIANKILFNWKSFNILPRQKIASYAKLYSTTSVKSIVHWFQILRSQKFQMFEESDNMLNSLTRPYQIANFPTRTNIKIPILLIYGGIDSLVDIDVMKKNLPFNSVFDVKVDNYEHLDLIWGKDADTLVIAKVLRFIEFFNPGNVSVKTNQLLPSASLVEELPSTTWKTTHPTHGLSYRTHSADRSPLSVQADEADEVHNADNSRFLRRVFSTSAIDEDNENEHQDDTEDQIHKEQQRRLSAYLESSKDLRQLDANSSTTALDALNKE
modifications: GST tag
notes: as for B1
B4: YMR072W: GST fusion yeast protein on proteome chip (protein, UniProt Q02486 27-183, looked up)
ARS-binding factor 2, …: KASKRTQLRNELIKQGPKRPTSAYFLYLQDHRSQFVKENPTLRPAEISKIAGEKWQNLEADIKEKYISERKKLYSEYQKAKKEFDEKLPPKKPAGPFIKYANEVRSQVFAQHPDKSQLDLMKIIGDKWQSLDQSIKDKYIQEYKKAIQEYNARYPLN
modifications: GST tag
notes: as for B1
B5: YBL106C: GST fusion yeast protein on proteome chip (protein, UniProt P38163 1-1010, looked up)
Lethal(2) giant larvae …: MFKKSRHLKNVSNAIKSARVHDVSNGINSKFFDTKKICTYGINGRITVTTFDYTQSLLAVATTAGEIHVYGQKQIEVVFTLKNRPQIKHMRFIKGIYLIAVDEKSNIIVLSVHSKQILTTVFCPNSITCIETDPSLDWMLIGLESGSILIYDVDRNQMSKLKIENFQKSVFLPKERLSPVISIQWNPRDIGTILISYEHITVIYSFIDYKVKQHFFYQLEPYAPGGDLSTNIEKKRTPKVIQSLYHPNSLHILTVHEDNSLVFWDVNSGKLIHARSIFETHVNFPNPALKDCSFTETPAIFKVSWLCQRNPEYTSLLIATKATENPCLPQEITMIDLGGTPMYSVTSFDAMSKYYAKPVQQKLFSLIGKAPLINFLPLPKASPYFGGCHDTNLILLLLEDGELETLIYPAGSFSSKASIFPRSLAWVRPTVTTCIAQSVQKNLWLGMMTIAQSESFLKGGIPATRNIRRHETRSALLTGHSNGSVRIWDASHSEVTDNAVFEVNTAKVLNRATNLAIKNISFASETLELAVSSEVGDVILFKFETNKFYGQLPKSDALQLKFSRFSLDDSKTILVDVSDRGPTNVKQGFIPSTVIHAKKGAVSAIMNSNIGFVAVGFIEGTLIILDRRGPAIIFNENIRVISKAGSSYVSTVHFCVMEYGDDGFSSILMLCGTDIGELMTFKILPATNGRFEVKFTDATKTNNQGKILGINSFAKDTGYSCSATISKMQGLSKGIAIPGFVTISGANDIRLVSPGKSKDTHALFKYPIATSGLSFIPIIDGKGERKLSTIMIVLLINGDIKVLTVPELKEVKNLRCPVPLSAQYVENSSILENGDIVIRTGKFQASLISVLNESATGTNHTADISQHTPIDTLYNPDLKIGYRPQVNSLQWARGTIYCTPYQLDELLGGIERPESKYEESAIARGCISSSSSNAARKLPPGTEDHRYARPVRSSGRSNGYGVLKSVSRAIETRLDTVETTINDYATTMGQTMNDAMEETGRDMMKSAVGF
modifications: GST tag
notes: as for B1
B6: YDL070W: GST fusion yeast protein on proteome chip (protein, UniProt Q07442 1-638, looked up)
Bromodomain-containing factor …: MSRTNMDTRHAHSALLAAPQSATANSRSSNSSSESSSNKNNINVGVGDDSGNVSAVSIDDGPHFRDIFHYGHEENYKLASSGITNLNSSSHAHQTLSPISISNASTPESFPEHPLGLERETEPALEAEMEAEELPPHQSKYLLSSIKATKRLKDARPFLKPVDPIALNIPHYFNYVQTPMDLSLIETKLQGNVYHSVEQVTSDFKTMVDNCLNFNGPESSISSMAKRIQKYFEKKLSAMPPRVLPASALKKTSRNRKKNEDMDSPLVIRRSVSTTNDNIGESGNREGVSGGRPKRTIHPPKSKDLFDIYENSKPKSKTLQKKFRTCLKILKVLMSKKNSDINFPFLQPVDPIALNLPNYFDVVKNPMDLGTISNNLMNWKYKTIDQFVDDLNLVFYNCFQFNPEGNEVHSMGKKLKELFNFHWLENQDILNEIETDSDLEEDNYSSSYSSDDEYDDEDINENDITNPAIQYLEQKLKKMEVELQQLKRQELSKLSKERKRKHLGKTLLRRKAMKHSVDDLKKSITDKINELSDLEMNGMIRIIKNSLPADEILTSNEDEIEIDLDILDEATIARIYERYFEKKNNNNSKRKLSGNYSTAPTNKKKKTLKFLEKDEIINNNNYSDSEEDSSDSSDSDSD
modifications: GST fusion
notes: as for B1
B7: YCR105W: GST fusion yeast protein on proteome chip (protein, UniProt P25377 1-361, looked up)
NADP-dependent alcohol …: MLYPEKFQGIGISNAKDWKHPKLVSFDPKPFGDHDVDVEIEACGICGSDFHIAVGNWGPVPENQILGHEIIGRVVKVGSKCHTGVKIGDRVGVGAQALACFECERCKSDNEQYCTNDHVLTMWTPYKDGYISQGGFASHVRLHEHFAIQIPENIPSPLAAPLLCGGITVFSPLLRNGCGPGKRVGIVGIGGIGHMGILLAKAMGAEVYAFSRGHSKREDSMKLGADHYIAMLEDKGWTEQYSNALDLLVVCSSSLSKVNFDSIVKIMKIGGSIVSIAAPEVNEKLVLKPLGLMGVSISSSAIGSRKEIEQLLKLVSEKNVKIWVEKLPISEEGVSHAFTRMESGDVKYRFTLVDYDKKFHK
modifications: GST fusion
notes: as for B1

Target: T1, FHHDbf2-H6Mob1TM9 (Saccharomyces cerevisiae, UniProt P22204+P40484)
T1 construct: made in house; host or cells: Hi5 insect cells (baculovirus)
T1 sequence (P22204 1-572): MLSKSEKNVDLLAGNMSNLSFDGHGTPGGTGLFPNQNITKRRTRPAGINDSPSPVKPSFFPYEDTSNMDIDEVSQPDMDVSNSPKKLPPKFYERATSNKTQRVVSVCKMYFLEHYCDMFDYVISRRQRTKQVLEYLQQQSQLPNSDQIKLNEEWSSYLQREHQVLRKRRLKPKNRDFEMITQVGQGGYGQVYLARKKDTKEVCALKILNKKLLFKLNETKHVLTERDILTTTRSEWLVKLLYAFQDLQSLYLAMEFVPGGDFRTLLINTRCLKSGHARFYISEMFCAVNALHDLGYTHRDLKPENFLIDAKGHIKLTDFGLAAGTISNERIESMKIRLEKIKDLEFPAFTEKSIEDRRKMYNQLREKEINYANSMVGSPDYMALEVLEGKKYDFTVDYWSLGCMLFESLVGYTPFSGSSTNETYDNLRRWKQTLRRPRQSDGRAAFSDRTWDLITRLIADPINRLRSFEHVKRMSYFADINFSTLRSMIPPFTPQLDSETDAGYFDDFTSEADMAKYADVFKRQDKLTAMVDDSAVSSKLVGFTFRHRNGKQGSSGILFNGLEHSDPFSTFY
T1 sequence (P40484 1-314 partner): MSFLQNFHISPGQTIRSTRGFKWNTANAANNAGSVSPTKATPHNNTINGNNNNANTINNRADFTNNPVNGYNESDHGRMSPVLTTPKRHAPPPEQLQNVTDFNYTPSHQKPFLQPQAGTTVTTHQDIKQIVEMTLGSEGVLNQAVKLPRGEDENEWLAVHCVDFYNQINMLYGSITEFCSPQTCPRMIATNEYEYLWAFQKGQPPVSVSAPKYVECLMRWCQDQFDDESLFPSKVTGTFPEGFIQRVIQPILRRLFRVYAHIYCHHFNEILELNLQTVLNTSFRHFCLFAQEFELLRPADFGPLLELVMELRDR
Assay: Yeast proteome chip assay
Assay type: biochemical
Conditions: Table 3; GST fusion proteins on proteome chip, [γ-33P]ATP, chips in duplicate, computer analysis
Experimental: The relatively low sequence complexity of the Dbf2 phosphorylation motif diminished the power of using genome-wide bioinformatics screens to identify putative substrates. Accordingly, we carried out a proteome array screen to identify putative yeast substrates. […] After taking into account the proteins phosphorylated in the negative controls, 67 proteins were determined to be putative Dbf2-Mob1 substrates (Table 3).
Yeast proteome microarrays were prepared as previously described. Overexpressed GST-tagged yeast proteins were purified from ~4,400 yeast strains and spotted on slides. To determine the optimal amount of kinase to use for probing proteome chips, we performed trial assays as described (J. Ptacek et al., submitted). […] The full proteome array was probed with 4 μl ^FHHDbf2-^H6Mob1^TM9 in 200 μl of DKB supplemented with [γ-^33P]ATP. As a control, ^FHHDbf2(N305A)-^H6Mob1^TM9 was used to probe the proteome array. […] To control for autophosphorylated proteins, the proteome array was probed with 200 μl of DKB supplemented with [γ-^33P]ATP. Proteome chips were assayed in duplicate in each case. Data analysis was performed as described (J. Ptacek et al., submitted). Briefly, signals were analyzed by a computer algorithm designed to normalize background and identify signals as positive if 3 of 4 spots (each protein is spotted twice on each slide and each kinase or control was tested on 2 slides) were 2 standard deviations above background and the fourth spot was 1.5 standard deviations above background.

Row | Molecule | Slide Signal (after normalization)
1 | B1 | 0.5694
2 | B2 | 0.8102
3 | B3 | 0.6321
4 | B4 | 0.7585
5 | B5 | 0.5988
6 | B6 | 0.6162
7 | B7 | 0.6146
